We go through one molecule from US20060142189A1 (MOUNT SINAI SCHOOL OF MEDICINE OF NEW YORK UNIVERSITY, published 2006).

Ends that are not written are not given here. * marks the point of attachment. Biotin = O=C1N[C@H]2[C@H](CS[C@H]2CCCCC(=O)*)N1

The assay deals with ankyrin B (endogenous in ND-7 cells). The experiment in a line: cell-based or functional assay.

Turning to Biotin-RQIKIWFQNRRMKWKKQFNEDGSFIGQF [AP-YF peptide], the “velocity of L1-CAM directed movement on the cell surface, against cells treated with control peptide or untreated cells” value is 2 fold.
